Assay results: article PMC3942423 (Nature chemical biology, 2009)

Substrate: O=[N+]([O-])c1ccc(O[C@H]2O[C@H](CO)[C@@H](O)[C@H](O)[C@@H]2O)cc1
Test: 4NP-Man hydrolysis kinetics
Type: biochemical, Bacteroides thetaiotaomicron
Settings: other: substrate 4NP-Man

B1: Bt1032 (Bacteroides thetaiotaomicron VPI-5482) (protein)
chain: GEGKAPPMDKEKSLLIDYVDPFIGTTNFGTTNPGAVCPNGMMSVVPFNVMGSADNTYDKDARWWSTPYEHTNCFFTGYSHVNLSGVGCPELGSLLLMPTTGELNVDYKEYGSKYKDEQASPGYYSNYLTKYNIKTEVSATPRTGIARFTFPKGESHILLNLGEGLTNESGAMLRRVSDSEIEGMKLLGTFCYNPQAVFPIYFVMRVNKVPATTGYWKKQRPMTGVEAEWDRDQGKYKLYTRYGKEIAGDDVGAYFTFETEEGEQVEVQMGVSFVSIENARLNLDKEQSGKNFEQVLSDARAQWNDDLSRITVEGGTDAQKTVFYTALYHLLIHPNVLQDVNGEYPAMESDQILTTKGTRYTVFSLWDTYRNVHQLLTLVYPERQMEMVRTMLDMYREHGWFPKWELYGRETLTMEGDPSIPVIVDTWMKGLRDFDVDLAYEAMYKSATLPGAENLMRPDNDDYMSKGYVPLREQYDNSVSHALEYYIADFALSRFADALGKKKDAEMFYKRSLGYKHYYSKEFGTFRPILPDGTFYSPFNPRQGENFEPNPGFHEGNSWNYTFYVPHDVYGLAKLMGGKKPFVNKLQMVFDEGLYDPANEPDIAYAHLFSYFKGEEWRTQKETQRLLDKYFTTKPDGIPGNDDTGTMSAWAIFNMIGFYPDCPGLPEYALTTPVFNKVTIRLDPKWYKENELVIESNRTGSETLYINKVLLDGKKFNKYRITHDELVHGKRLIFDLK
B1 was tested, and the Km (enzyme Bt1032, pH 7.0) was 1700 ± 360 µM, the kcat (enzyme Bt1032, pH 7.0) was 0.006 ± 0.000633 s⁻¹ and the kcat/Km (enzyme Bt1032, pH 7.0) was 3.5 M⁻¹ s⁻¹.

B2: Bt3963 (Bacteroides thetaiotaomicron VPI-5482) (protein)
chain: QQPVDYVNPIIGTNGMGHTFPGACTPFGWVQLSPDTDTIPHNVNGAYQKNAYEYCAGYQYRDKTIVGFSHTHLSGTGHSDLGDILLMPAVGDVKLNPGRADHPEEGYRSRFDHATEKATPGYYEVMLDDYGIKAQLTATQRTGVHKYTFPKGKDGHLILDLVHGIYNYDGKVLWANLRVENDTLLTGYRITNGWARTNYTYFAISLSQPIKDYGYKDKEKVLYNGFWRRFKLEKNFPEITGRKIVAYFNFETAKDPELVVKVALSAVSTEGAVKNLRAEASGKSFEQLAEAARTDWNNELDHFEIEGTPDQKAMFYTSLYHTMINPSVYMDVDGSYRGLDHNIHQAKGFTNYTIFSLWDTYRAEHPFLNLVKPERNADMVESMIKHEQQSVHGMLPIWSLMGNENWCMSGYHAVSVLADAITKGVFSNVDEALSAMVSTSTVPYYEGVADYMKLGYIPLDKSGTAASSTLEYAYDDWTIYQTALKAGNKEIADTYRKRALNYRNIYDTSIGFARPRYSDGTFKKEFDVLQTYGEGFIEGNSWNFSFHVPHDVFGMIDLMGGEKTFVQKLDELFSMHLPEKYYEHNEDITEECLVGGYVHGNEPSHHVPYLYAWTSQPWKTQYWLREILNKMYKNDINGLGGNDDCGQMSAWYLFSVMGFYPVCPGTDQYVLGAPYLPYLKLTLPNGKTLEIKAPGVSDKKRYVQSLKLNGESYDKMYITHEDILKGGVLEFKMSASPNKRRGVSVQDKPYSLTNGIN
Protein B2 has a Km (enzyme Bt3963, pH 7.0) of 790 ± 80 µM, a kcat (enzyme Bt3963, pH 7.0) of 0.00045 ± 1.67e-05 s⁻¹ and a kcat/Km (enzyme Bt3963, pH 7.0) of 0.567 M⁻¹ s⁻¹.

B3: Bt3991 (Bacteroides thetaiotaomicron VPI-5482) (protein)
chain: MKLKTLLIGCFGGFIMLNSCTESPSVKDYSAYVNPFIGTGGHGHTFPGAVVPHGMIQPSPDTRIDGWDACSGYYYDDNTINGFSHTHVSGTGCCDYGDVLLMPTVGKPQYLTTDPESQKLAYASAFSHENETAEPGYYSVFLDTYQVKAEITATKRGAIHRYTFPESTESGFIIDLDYSLQRQTNYEMEIEVISDTEICGHKKTTYWAFDQYINFYAKFSKPFAYTLITDSVTMDNGKRLPVCKAVLHFNTKKDEEVLVKVGVSAVDIAGARKNVESEIPEWDFDKVRKDARTAWNNYLSKIDITTSDKEDKTIFYTALYHTAISPNLFTDADGRYLGMDLEVHQGDTINPLYTVFSLWDTFRALHPLMTIIDPNLNNQFINSLIRKHQEGGIYPMWDLASNYTGTMIGYHAVPVIVDAYMKGYRNFDAHEAYKASLRAAEYDTTGIKCPDLVLPHLMPKAKYYKNAIGYIPCDRENESVAKALEYAYDDWCISIFAEAMNDFENKAKYERFAKAYEFYFDKSTRFMRGLDSNGEWRTPFNPRASTHRSDDYCEGTAWQWTWFVPHDVEGLVKLMGGEDAFVEKLDSLFTVDSSLDGETTSADISGLIGQYAHGNEPSHHVIHLYNYVNRPWRTQELVDSVYRSQYANNVDGLSGNEDCGQMSAWYILNSMGFYQVCPGKPVYSIGRPAFDKAVINLPGEKTFSIVAKNNSKSNKYIESVLLNGKPLDTPFFGHQDIVAGGVMEIRMTDHPTQWGVRQ
For B3, the kcat (enzyme Bt3991, pH 7.0) was 0.0025 ± 0.00035 s⁻¹ and the kcat/Km (enzyme Bt3991, pH 7.0) was 0.917 M⁻¹ s⁻¹.

B4: Bt3994 (Bacteroides thetaiotaomicron VPI-5482) (protein)
chain: EIDYTSYVNPFIGTDFTGNTYPGAQAPFGMVQLSPDNGLPGWDRISGYFYPDSTIAGFSHTHLSGTGAGDLYDISFMPVTLPYKEAEAPLGIYSKFSHDEESAYAGYYQVRLKDYHINVELTATERCGIQRYTFPKAEAAIFLNLKKAMNWDFTNDSHIEVVDSVTIQGYRYSDGWARDQRIYFRTRFSKPFDKVELDTTAIIKDKQHIGTAVIARFDFHTEEGEQILVNTAISGVSMEGAAKNLQAEVPENDFDKYLAETKANWNRQLGKIEVEGDNQDDKVNFYTALYHSMIAPTIYSDVDGAYYGPDKKVHQSDGWVNYSTFSLWDTYRAAHPLFTYTEPERVNDMVKSFIAFFEQNGRLPVWNFYGSETDMMIGYHAVPVIVDAYLKGIGNFDAEKALAACVATANLDNYRGIGLYKQLGYIPYNVTDHYNAENWSLSKTLEYAFDDYCIAEMANKMGKKEIADEFYKRSQNYKNVYNPATSFMQPRDDKGNFIKDFKADEYTPHICESNGWQYFWSVQHDIDGLIDLTGGKNRFAEKLDSMFTYHPAADEELPIFSTGMIGQYAHGNEPSHHVIYLFNAVGQQNLTQKYVAKVMNELYKNEPAGLCGNEDCGQMSAWYVFSAMGFYPVNPVSGKYEIGTPLFPEMKLHLANGKTFTVLAPKVSKENIYIQSIKVDGQPYNKTYLTHEQIMSGTTVEFEMGNTPLVEVEFEEQTQ
B4 showed a Km (enzyme Bt3994, pH 7.0) of 3700 ± 430 µM, a kcat (enzyme Bt3994, pH 7.0) of 1.57 ± 0.0933 s⁻¹ and a kcat/Km (enzyme Bt3994, pH 7.0) of 433 M⁻¹ s⁻¹.

B5: Bt3130 (Bacteroides thetaiotaomicron VPI-5482) (protein)
chain: GEITKYVNPFIGTGAIDGGLSGNNYPGATSPFGMIQLSPDTSEAPNWGDASGYDYNRNTIFGFSHTRLSGTGASDLIDITLMPTSSGRTSSAFTHDEEKARPGYYQVMLKDENINAELTTTQRNGIHRYQYPAGKDAEIILDMDHSADKGSWGRRIINSQIRILNDHAVEGYRIITGWAKLRKIYFYMEFSSPILTSTLRDGGRVHENTAVINGTNLHGCFRFGQLNGKPLTCKVALSSVSMENARQNMEQEAPHWDFDRYVAAADADWEKQLGKIEVKGTEVQKEIFYTALYHTMIQPNTMSDVNGEYMAADYTTRKVANNETHYTTFSLWDTFRASHPLYTLLEPERVTDFVKSMIRQYEYYGYLPIWQLWGQDNYCMIGNHSIPVITDAILKGIPGIDMEKAYEAVYNSSVTSHPNSPFEVWEKYGFMPENIQTQSVSITLEQAFDDWCVAQLAAKLNKDADYQRFHKRSEYYRNLFHPKTKFFQSKNDKGEWIEPFDPYQYGGNGGHPFTEGNAWQYFWYVPHNIQALMELTGGTKAFEQKLDTFFTSTYKSEQMNHNASGFVGQYAHGNEPSHHVAYLYNFAGQPWKTQKYVSHILNTLYNNTSSGYAGNDDCGQMSAWYVFSAMGFYPVNPADGRYIIGSPLLDECTLKLAGNKEFRIRTIRKSPEDIYIQSVTLNGKKHKDFFITHQDIMNGGTMVFKMGKKPSGWGK
With B5 the Km (enzyme Bt3130, pH 7.0) was 510 ± 97 µM, the kcat (enzyme Bt3130, pH 7.0) was 56.7 ± 3.17 s⁻¹ and the kcat/Km (enzyme Bt3130, pH 7.0) was 112000 M⁻¹ s⁻¹.
